Assay results: the supplement of paper PMC6757056
± gives the standard deviation of the averaged measurements.

B1: library; a variant is named by its letters at N, in order (parent)
chain: GCUGUCACCGGUGUAUUACCCUAGUGGUCGACCGGUCUGAUGAGUCUNNNNNNAGACGAAACAGC

Assays:
hypoxanthine [1] = variants of: B1; test: normalized RNA/DNA level with ligand (relative to sTRSVctl = 100) (log10 (% of sTRSVctl)); ligand: hypoxanthine (xanthine aptamer); higher = less ribozyme self-cleavage, higher mRNA level; settings: ligand concentration (+) RNA-Seq: 5 mM, HEK293T, reporter: mCherry (pCS4076), ligand present: yes
Outline: (§1)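 RNA level was computed as RNA reads over DNA reads divided by a spiked-in non-cleaving sequence or by the top sequences, then scaled and log-transformed. Scaling was ×100 with log10, the top group was 25 sequences, and the threshold was ≥100 DNA reads. The reads came from HEK293T cells transfected at 4 µg per 6-well well with ribozyme switch library plasmids (mCherry, or eGFP in some ligand experiments). Total RNA was extracted with EDTA 72 h after transfection, with any ligand added 1 h before it.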

hypoxanthine [2] = variants of: B1; test: normalized RNA/DNA level without ligand (relative to sTRSVctl = 100) (log10 (% of sTRSVctl)); ligand: hypoxanthine (xanthine aptamer); higher = less ribozyme self-cleavage, higher mRNA level; settings: HEK293T, reporter: mCherry (pCS4076), ligand present: no
Outline: as §1

Variant | normalized RNA/DNA level with ligand (log10) (hypoxanthine [1]) | normalized RNA/DNA level without ligand (log10) (hypoxanthine [2])
GCUGUCACCGGUGUAUUACCCUAGUGGUCGACCGGUCUGAUGAGUCUGCGGGCAGACGAAACAGC [GCGGGC] | 1.86 ± 0.046 | 1.58 ± 0.084
GCUGUCACCGGUGUAUUACCCUAGUGGUCGACCGGUCUGAUGAGUCUACGGCCAGACGAAACAGC [ACGGCC] | 1.96 ± 0.02 | 1.88 ± 0.029
GCUGUCACCGGUGUAUUACCCUAGUGGUCGACCGGUCUGAUGAGUCUACGGCUAGACGAAACAGC [ACGGCU] | 1.88 ± 0.034 | 1.6 ± 0.016
GCUGUCACCGGUGUAUUACCCUAGUGGUCGACCGGUCUGAUGAGUCUGCGUCAAGACGAAACAGC [GCGUCA] | 1.96 ± 0.023 | 1.68 ± 0.069
GCUGUCACCGGUGUAUUACCCUAGUGGUCGACCGGUCUGAUGAGUCUGCGUCCAGACGAAACAGC [GCGUCC] | 1.93 ± 0.029 | 1.59 ± 0.039
GCUGUCACCGGUGUAUUACCCUAGUGGUCGACCGGUCUGAUGAGUCUACGUCAAGACGAAACAGC [ACGUCA] | 1.94 ± 0.038 | 1.64 ± 0.032
GCUGUCACCGGUGUAUUACCCUAGUGGUCGACCGGUCUGAUGAGUCUACGUCCAGACGAAACAGC [ACGUCC] | 1.957 ± 0.0037 | 1.847 ± 0.015
GCUGUCACCGGUGUAUUACCCUAGUGGUCGACCGGUCUGAUGAGUCUCCGUAAAGACGAAACAGC [CCGUAA] | 1.95 ± 0.098 | 1.67 ± 0.1
GCUGUCACCGGUGUAUUACCCUAGUGGUCGACCGGUCUGAUGAGUCUCCGUACAGACGAAACAGC [CCGUAC] | 1.92 ± 0.047 | 1.66 ± 0.037
GCUGUCACCGGUGUAUUACCCUAGUGGUCGACCGGUCUGAUGAGUCUCCGUAUAGACGAAACAGC [CCGUAU] | 1.91 ± 0.033 | 1.749 ± 0.0044
GCUGUCACCGGUGUAUUACCCUAGUGGUCGACCGGUCUGAUGAGUCUCCGUAGAGACGAAACAGC [CCGUAG] | 1.82 ± 0.024 | 1.35 ± 0.099
GCUGUCACCGGUGUAUUACCCUAGUGGUCGACCGGUCUGAUGAGUCUGCGUAAAGACGAAACAGC [GCGUAA] | 1.83 ± 0.035 | 1.49 ± 0.054
GCUGUCACCGGUGUAUUACCCUAGUGGUCGACCGGUCUGAUGAGUCUUCGUCCAGACGAAACAGC [UCGUCC] | 1.98 ± 0.026 | 1.95 ± 0.0024
GCUGUCACCGGUGUAUUACCCUAGUGGUCGACCGGUCUGAUGAGUCUUCGUCAAGACGAAACAGC [UCGUCA] | 1.986 ± 0.016 | 1.807 ± 0.0051
GCUGUCACCGGUGUAUUACCCUAGUGGUCGACCGGUCUGAUGAGUCUACGGUUAGACGAAACAGC [ACGGUU] | 1.84 ± 0.024 | 1.36 ± 0.064
GCUGUCACCGGUGUAUUACCCUAGUGGUCGACCGGUCUGAUGAGUCUACGGUGAGACGAAACAGC [ACGGUG] | 1.8673 ± 0.00056 | 1.24 ± 0.062
GCUGUCACCGGUGUAUUACCCUAGUGGUCGACCGGUCUGAUGAGUCUACGGUCAGACGAAACAGC [ACGGUC] | 1.94 ± 0.039 | 1.87 ± 0.0091
GCUGUCACCGGUGUAUUACCCUAGUGGUCGACCGGUCUGAUGAGUCUCCGUCAAGACGAAACAGC [CCGUCA] | 1.909 ± 0.008 | 1.855 ± 0.0032
GCUGUCACCGGUGUAUUACCCUAGUGGUCGACCGGUCUGAUGAGUCUCCGUCCAGACGAAACAGC [CCGUCC] | 1.98 ± 0.067 | 1.91 ± 0.057
GCUGUCACCGGUGUAUUACCCUAGUGGUCGACCGGUCUGAUGAGUCUUCGGCUAGACGAAACAGC [UCGGCU] | 1.913 ± 0.014 | 1.8 ± 0.063
GCUGUCACCGGUGUAUUACCCUAGUGGUCGACCGGUCUGAUGAGUCUUCGGCCAGACGAAACAGC [UCGGCC] | 2.04 ± 0.081 | 1.951 ± 0.006
